Assay: label from the status in PepcDB records
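Also: failed if final PepcDB status was selected cloned or expressed and not failed if soluble or beyond.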

Sequence	protein production
MSLKIRDAYTIVTCPGRNFVTLKIVTESGTHGIGDATLNGREMAVAAYLDEHVVPALIGRDAGRIEDTWQYLYRGAYWRRGPVTMTAIAAVDMALWDIKAKAAGMPLYQLLGGKSRERVMTYAHCTGQTIEDCLGEVARHVELGYRAVRVQSGVPGIETTYGVAKTPGERYEPADSSLPAEHVWSTEKYLNHAPKLFAAVRERFGDDLHVLHDVHHRLTPIEAARLGKAVEPYHLFWLEDCVPAENQESLRLIREHTTTPLAIGEVFNSIHDCRELIQNQWIDYIRMPLTHGGGITAMRRVADLASLYHVRTGFHGPTDLSPVCLGAAIHFDTWVPNFGIQEHMPHTDETDAVFPHDYRFEDGHFLAGESPGHGVDIDEELAAKYPYERASLPVNRLEDGTLWHWEGHHHHHH	not failed
MSLKITGVNIYLLKSGRLHPVLVEISTDEGITGAGEAGIAYGVGGTAAAGMIKDLSERFLIGKDPSRIEELWSTMYDHSFWAKNGGAIIFAGISAIEQALWDIKGKCLGVPVYELFGGKIRDRVRAYANGWYGAADTPDEFARAVERPLKEGYGALKFYPLAQRVGSALQHVTRRSMSAEAIELAYRRVKAVRDAAGPEIELMVDLSGGLTTDETIRFCRKIGELDICFVEEPCDPFDNGALKVISEQIPLPIAVGERVYTRFGFRKIFELQACGIIQPDIGTAGGLMETKKICAMAEAYNMRVAPHVCGSSLIETATLQLEANITNFMIHEHYPAFKADDGYVEVLENPPSISSGYFEMPNGPGLGAVLIKRNIEPYLWASCTEGHHHHHH	not failed
MSLKKTILCFGEALIDMLAQPLVKKGMPRAFLQCAGGAPANVAVAVARLGGAVQFVGMLGSDMFGDFLFDSFAEAGVVTDGIVRTSTAKTALAFVALDAHGERSFSFYRPPAADLLFRVEHFQDASFSDALIFHACSNSMTDADIAEVTFEGMRRAQAAGAIVSFDLNFRPMLWPNGENPASRLWKGLSLADVVKLSSEELDYLANTLAADANAVIQQLWQGRAQLLLVTDAAGPVHWYTRTAGGEVPTFRVQVQDSNAAGDAFVGGMLYTFAQQFDDAAALIDFCHDPESIVSTLRFAAAVGALAVTRQGAFTAMPMLSEVLSLIQEQSEGHHHHHH	not failed
MSLKLYGFSVSNYYNMVKLALLEKGLTFEEVTFYGGQAPQALEVSPRGKVPVLETEHGFLSETSVILDYIEQTQGGKALLPADPFGQAKVRELLKEIELYIELPARTCYAESFFGMSVEPLIKEKARADLLAGFATLKRNGRFAPYVAGEQLTLADLMFCFSVDLANAVGKKVLNIDFLADFPQAKALLQLMGENPHMPRILADKEASMPAFMEMIRSGKREGHHHHHH	not failed
MSLKTLNIYLMRHGKVDAAPGLHGQTDLKVKEAEQQRIAMAWKTKGYDVAGIISSPLSRCHDLAQILAEQQLLPMTTEDDLQEMDFGDFDGMPFDLLTEHWKKLDAFWQSPAHHSLPNAESLSTFSQRVSRAWSQIINDINDNLLIVTHGGVIRIILAHVLGVDWRNPQWYSTLAIGNASVTHITITIDDQIYASVRSIGVPLVEEGHHHHHH	not failed
MSLKVHHIGYAVKNIDSALKKFKRLGYVEESEVVRDEVRKVYIQFVINGGYRVELVAPDGEDSPINKTIKKGSTPYHICYEVEDIQKSIEEMSQIGYTLFKKAEIAPAIDNRKVAFLFSTDIGLIELLEKEGHHHHHH	not failed
MSLKYGHVAWIQQILDGSYADAMNTLKNITVDDSKKGESLSECELHLNVAKLSSLLVEKDNLDINTLRKIQYNLDTIDAEKNISNKLKKGEVQICKRFKNGSIREVFNILVEELKSTTVVNLSDLVELYSMLDDEESLFIPLRLLSVDGNLLNFEVKKFLNALVWRRIVLLNASNEGDKLLQHIVKRVFDEELPKNNDFPLPSVDLLCDKSLLTPEYISETYGRFPIDQNAIREEIYEEISQVETLNSDNSLEIKLHSTIGSVAKEKNYTINYETNTVEYEGHHHHHH	not failed
MSLLDAHIPQLIASHTAFAAKAGLMRHTIGQAEQQAMSAQAFHQGESAAAFQGAHARFVAAAAKVNTLLDIAQANLGEAAGTYVAADAAAASSYTGF	failed
MSLLDFYIIWRGDMLFATVVPIAYFLLYLKNKQVTFVFLKFVMAFVICLYWATYACTFFYSYYDVIGWFKILIIPVFSIYSGFVLHLLKSKKKKVFFLISIVYIIFWCILIFWHCMSSM	failed
MSLLLCDIGNSNANFLDDNKYFTLNIDQFLEFKNEQKIFYINVNEHLKEHLKNQKNFINLEPYFLFDTIYQGLGIDRIAACYTIEDGVVVDAGSAITIDIISNSIHLGGFILPGIANYKKIYSHISPRLKSEFNTQVSLDAFPQKTMDALSYGVFKGIYLLIKDAAQNKKLYFTGGDGQFLANYFDHAIYDKLLIFRGMKKIIKENPNLLYEGHHHHHH	not failed
MSLLPLPFTVHFDPTNQELLLSGKMRPESAAEITDALKLVQQSLEKYSGVVYVNVKRLTHINMTAFAALADILAASSRIRPERKIVIITSSVVAWSTSLFQTLAASQPSLSVEVYDSAFYPGQSFVEDETFIPILRTQTKMTWRHERELLPRHGLRSGLVIADICCGIGDFAALVQREFKPARLVALDHSVRSLEYARRVAADFDLQGIEYTYGDASQMLLRDNQFDFVTCRHSLQIFNRPEMLLRELYRICKPGGRVYITNEKNSHCLGEPHAESIKWTYEEVAKLFKHFDMDVEMGPKSRHLLADAGFDNIKVDSFMVTNLDGDPQDFADIIEAWENVYAGEMAVRRGDSSDFIRRFRQGFKDHVFAALHPKGYAGWPIWAASGRKPL	failed
MSLMQLQLTQEWDKTFPLSAKVEHRKVTFANRYGITLAADLYLPKNRGGDRLPAIVIGGPFGAVKEQSSGLYAQTMAERGFVTLAFDPSYTGESGGQPRNVASPDINTEDFSAAVDFISLLPEVNRERIGVIGICGWGGMALNAVAVDKRIKAVVTSTMYDMTRVMSKGYNDSVTLEQRTRTLEQLGQQRWKDAESGTPAYQPPYNELKGGEAQFLVDYHDYYMTPRGYHPRAVNSGNAWTMTTPLSFMNMPILTYIKEISPRPILLIHGERAHSRYFSEIAYAAAAEPKELLIVPGASHVDLYDRLDRIPFDRIAGFFDEHLEGHHHHHH	not failed
MSLNIKEASEKSGVSADTIRYYERIGLIPPIHRNESGVRKFGAEDLRWILFTRQMRRAGLSIEALIDYLALFREGEHTLEARAELLKKQRIELKNRIDVMQEALDRLDFKIDNYDTHLIPAQEELKDFNVERSNEGHHHHHH	not failed
MSLNKKVFIIDKQTVYQEIDNFSASDAWRCAFIGKNWPQEKKEKIADLLFKREFDEKGNPIGMALTNWRVNIGAGSYENREAKEVDNSWNRTECFLSPDGKYDFTKQAGQQWFMKAARERGMNNFLFFTNSAPYFMTRSASTVSTDQDCINLQNDKFDDFARFLVKSAQHFREQGFHVNYISPNNEPNGQWHANSFQEGSFATKADLYRMVEELDKAISEAQIDTKILIPEVGDMKYLFEIDSIAKTPDDIIHSMFYKDGQYSVLKFKNLFNCVAAHDYWSAYPATLLVDIRNRIHKELSANGHNTKFWASEYCILEKNEEITMPASPERSINLGLYVARIIHNDLTLANASAWQWWTAVSLGEDVPIQLLPLEGSNGLSLQYDGEISTTKMLWTTANYSFFVRPGMKRIAIKPTYKISDLEAATSLMISSYTDGKEVVTVAINYSKENQVISLNCDHAQKGKVYLTTIDKNLRYMGEQPLKKLQLPARSVATIVVEDNEGHHHHHH	not failed
MSLNSAAQAQSSDPVVIGCPAPLTGIVAADGIEFQRGIQMAADEINAVGGILGRPIELVFADTQSKGVDVVIQSAQRLIDRDNASALIAGYNLENGTALHDVAADAGVIAMHANTVAVHDEMVKSDPDRYWGTFQYDPPETLYGGGFLKFLKDIEDNGEFSRPNNKIAIITGPGIYSVNIANAIRDGAGEYGYDVSLFETVAIPVSDWGPTLAKLRADPPAVIVVTHFYPQDQALFMNQFMTDPTNSLVYLQYGASLAAFRDIAGDNSVGVTYATVLGTLQDEMGDAFAKAYKERYGDLSSTASGCQTYSALYAYSIAAALAGGPGAPYDDVQNKAVADRLRSLIFRGPVGTMRFHADTQSAWSYPTETNDPSLGMPHIFSQIFDKAEDGVLIAPAPYKKAGFKMPPWMKGEGHHHHHH	not failed
MSLNVKNDFSILIIEDDKEFADMLTQFLENLFPYAKIKIAYNPFDAGDLLHTVKPDVVMLDLMMVGMDGFSICHRIKSTPATANIIVIAMTGALTDDNVSRIVALGAETCFGKPLNFTLLEKTIKQLVEQKKATSEGHHHHHH	not failed
MSLNYIEDIKNYIPFNEQEERDKELFLRCLNDFHDILTRDNTIAHLTSSAFAVNKERNKFLMIHHNIYNSWAWTGGHSDNEKDQLKVAIKELKEETGVKNPTPLLDKAFALDVLTVNGHIKRGKYVSSHLHLNLTYLIECSEDETLMLKEDENSGVMWIPFNEISKYCSEPHMIPIYEKLINKLKTQSKEGHHHHHH	not failed
MSLPANKLVFVGGMGAGKTTAVRSISDVEPVSTEMPLSQDAYGDKTYTTVALDYSSIELEDGELLHVYGVPGQKYLDFMWPLVCDGALGVIVLTNARDPQMLTATLELLREFSQIAPEASLAVGITMTDEVEDFLVPPFREALVAEGFRVPVMRVDARSATQITFLVKSLLSYRYTSATSLEHHHHHH	not failed
MSLPTFRIIGFIIGIFLITLAVAMIVPMATLVIYDRFEDLRSFLWASAITFIAGLALVVPGRPDNVQLRPRDMYMLTVSSWIVVCIFAALPFLLTQHISYTDSFFESMSGITATGSTVLSHLDSMSPGILIWRSMLHWLGGIGFIGMAVAILPLLRIGGMRLFQTESSDRSEKVMPRSHMVAKFIVLAYVGFTALGSLAFWAAGMSLFDAINHAMSAISTGGFSTSDLSLARWPQPAVHWVAIVVMILGSLPFTLYVATLRGNRKALIKDEQVQGLIGLLLITWLVMTVWYANTTDLPWTEALRHVALNVTSVVTTTGFALGDYSLWGNFSLMLFFYLGFIGGCSGSTAGGVKIFRFQVAYILLKTNLNQLIHPRAVMKQKYNGHRLDDEIVRSILTFSFFFTITICLIALMLSLLGLDWMTALTGAASTVSGVGPGLGEVIGPAGNFSTLPDAAKWILSGGMLLGRLEIITVLVLCVPAFWRH	failed
MSLQPKLLLVLKGDSNAYWRQVYLGAQKAADEAGVTLLHRSTKDDGDIAGQIQILSYHLSQAPPDALILAPNSAEDLTPSVAQYRARNIPVLVVDSDLAGDAHQGLVATDNYAAGQLAARALLATLDLSKERNIALLRLRAGNASTDQREQGFLDVLRKHDKIRIIAAPYAGDDRGAARSEMLRLLKETPTIDGLFTPNESTTIGALVAIRQSGMSKQFGFIGFDQTEELEAAMYAGEISNLVVQNPEYMGYLAVQRALDLVRGKPIPAFTDTGVRLLQEGHHHHHH	not failed

Reference: a protein production outcome set (Wang et al. 2014)
